B1: E3 ubiquitin-protein ligase MARCHF2 (Homo sapiens), Q9P0N8 (parent)
chain: MTTGDCCHLPGSLCDCSGSPAFSKVVEATGLGPPQYVAQVTSRDGRLLSTVIRALDTPSDGPFCRICHEGANGECLLSPCGCTGTLGAVHKSCLEKWLSSSNTSYCELCHTEFAVEKRPRPLTEWLKDPGPRTEKRTLCCDMVCFLFITPLAAISGWLCLRGAQDHLRLHSQLEAVGLIALTIALFTIYVLWTLVSFRYHCQLYSEWRKTNQKVRLKIREADSPEGPQHSPLAAGLLKKVAEETPV

The first assay covers variants of B1. As to conditions: with ergi3_human ERGIC3, Q9Y282.
ergi3_human ERGIC3, Q9Y282, sequence (Q9Y282 whole entry): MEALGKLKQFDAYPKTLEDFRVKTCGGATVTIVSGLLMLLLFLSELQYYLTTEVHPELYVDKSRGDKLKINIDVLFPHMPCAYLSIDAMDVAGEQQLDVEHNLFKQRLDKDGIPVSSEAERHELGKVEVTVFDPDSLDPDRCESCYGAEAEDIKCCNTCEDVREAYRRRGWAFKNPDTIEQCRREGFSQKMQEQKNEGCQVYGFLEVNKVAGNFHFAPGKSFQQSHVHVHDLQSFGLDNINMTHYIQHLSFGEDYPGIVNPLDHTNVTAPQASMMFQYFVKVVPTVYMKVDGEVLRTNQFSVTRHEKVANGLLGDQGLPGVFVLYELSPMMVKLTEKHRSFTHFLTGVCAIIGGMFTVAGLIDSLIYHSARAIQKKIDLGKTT
As for C64S;C67S, the “effect of a mutation on the interaction” value is recorded as “decreasing interaction strength”.

The next assay covers variants of B1. As to conditions: with ergi3_human ERGIC3, Q9Y282. This is another data set of the same source.
As to C64S;C67S, the “effect of a mutation on the interaction” value was “with no effect”.

The variants in another assay derive from B1. To be noted: with ergi3_human ERGIC3, Q9Y282. The source holds these as a separate data set.
For the variant C64S;C67S, the “effect of a mutation on the interaction” value is recorded as “causing an interaction”.

Values taken from IntAct's records for PubMed 31142615.
